The substances below were run against neonatal Fc receptor (FcRn) protein, immobilized on a column (UniProt P55899) (assay: FcRn affinity chromatography; FcRn immobilised on an affinity column (Roche); 30 µg antibody in 20 mM MES, 140 mM NaCl pH 5.5; 10 min at 20% buffer B (20 mM Tris, 140 mM NaCl pH 8.8), then 20-100% buffer B over 80 min; 0.5 mL/min).
UniProt P55899, sequence (P55899 24-297): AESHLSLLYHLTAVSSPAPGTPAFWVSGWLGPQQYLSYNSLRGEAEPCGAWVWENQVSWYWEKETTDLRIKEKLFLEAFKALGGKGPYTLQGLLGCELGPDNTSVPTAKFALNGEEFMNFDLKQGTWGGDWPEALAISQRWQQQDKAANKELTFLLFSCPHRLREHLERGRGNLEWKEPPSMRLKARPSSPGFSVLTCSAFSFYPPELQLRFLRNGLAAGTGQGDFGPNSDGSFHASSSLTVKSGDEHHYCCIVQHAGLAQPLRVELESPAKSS

Row | FcRn ret. time | Substance
1 | 46.4 min | Bapi (control), control variant without mutations (antibody)
2 | 46.4 min | Bapi (monospecific bapineuzumab IgG with effector function reducing mutations L234A, L235A, P329G) (antibody)
3 | 46.4 min | Bapi-Fab8D3 (bispecific bapineuzumab IgG1, knobs-into-holes, with a single-chain Fab of the TfR antibody 8D3 on the C-terminus of one heavy chain; L234A, L235A, P329G) (bispecific antibody)
